Source: the Human Domainome abundance scans (Beltran et al. 2025)

B1: Apoptosis-associated speck-like protein containing a CARD, residues 114 to 194; numbered along this chain, Q9ULZ3 (parent)
chain: FIDQHRAALIARVTNVEWLLDALYGKVLTDEQYQAVRAEPTNPSKMRKLFSFTPAWNWTCKDLLLQALRESQSYLVEDLER

Variants of: B1
Test: abundance fitness (aPCA) (normalised: wild type 0, dead -1); higher = more abundant; growth selection in yeast, the domain comes from the species named
Conditions: Homo sapiens

Abundance fitness, by site and new letter:
W56: M -0.108 | Y -1.01 | D -0.626 | N -0.83 | H -0.371 | Q -0.598 | K -0.684 | G -0.838 | F -0.506 | C -0.957 | A -0.899 | T -0.74 | E -1.13 | V -0.694 | S -0.813 | L -0.568 | I -0.434 | R -0.574
T53: Y 0.11 | K -0.957 | P -1.03 | E -0.126 | I -0.055 | L 0.071 | F -0.342 | C -0.347 | M 0.015 | D -0.855 | V 0.072 | R -0.466 | G -0.663 | H -0.394
P54: I -0.189 | Q -0.064 | G -0.017 | V -0.197 | K 0.047 | M -0.292 | E 0.078 | L -0.328 | W -0.084 | T 0 | Y -0.166 | C -0.254 | H -0.196 | R -0.026 | S 0.044 | D 0.132 | F 0.057 | A 0.045
W58: M 0.167 | A 0.357 | R 0.234 | T 0.319 | P 0.145 | S 0.306 | G 0.205 | E 0.376 | Y 0.203 | N 0.105 | Q 0.174 | F 0.105 | V 0.174 | C 0.047 | K 0.19 | I -0.217 | H 0.289 | D 0.453
N57: E -0.32 | L -0.178 | W -0.468 | V -0.431 | R -0.731 | C -0.269 | K -0.492 | T -0.106 | I -0.311 | S 0.018 | Y -0.852 | M -0.399 | D 0.092 | H -0.279 | P -0.233
F52: S -0.948 | K -1 | C -0.966 | T -1.03 | M -0.454 | R -0.824 | W -0.696 | N -0.836 | Y -0.105 | A -0.732 | G -0.943 | D -0.996 | Q -0.427 | V -0.649 | I -0.53 | P -0.979
S51: P -0.796 | N -0.806 | T -0.141 | G -0.587 | M -0.321 | L -0.938 | R -0.839 | D -0.169 | I -0.904 | Q -0.205 | F -0.633 | Y -0.843 | W -0.849 | A -0.422 | C -0.429 | K -0.96 | E -0.012
A55: H -0.005 | G 0.082 | Y -0.077 | F -0.36 | E 0.087 | N 0.181 | M -0.162 | T -0.061 | V -0.416 | D -0.061 | I -0.286 | K 0.016 | Q -0.062 | P -0.325 | S 0.107
T59: E 0.269 | F -0.023 | A 0.109 | H 0.07 | G -0.019 | C -0.135 | D -0.007 | I -0.243
F50: Y 0.015 | N -0.775 | Q -0.871 | W -0.693 | P -0.607 | C -0.937 | D -1.06 | R -0.81 | I -0.418 | S -0.822 | K -1.02 | M 0.113 | L 0.182 | H -0.948 | E -0.799 | V -0.536
L49: Y -0.846 | S -0.798 | V -0.837 | P -0.73 | H -0.664 | D -0.914 | M -0.888 | F -0.811 | G -0.79 | N -0.209 | E -0.979 | I -0.444
